Publication PMC5548745, “Agonist-induced dimer dissociation as a macromolecular step in G protein-coupled receptor signaling” (Nature Communications, 2017)

B1: Frizzled 6 (FZD6), wild type, expressed as V5-FZD6-mCherry and as FZD6-GFP [human] / Frizzled 6 (FZD6), wild type, expressed as V5-FZD6-mCherry and as FZD6-GFP [human] (parent)
chain 1: HSLFTCEPITVPRCMKMAYNMTFFPNLMGHYDQSIAAVEMEHFLPLANLECSPNIETFLCKAFVPTCIEQIHVVPPCRKLCEKVYSDCKKLIDTFGIRWPEELECDRLQYCDETVPVTFDPHTEFLGPQKKTEQVQRDIGFWCPRHLKTSGGQGYKFLGIDQCAPPCPNMYFKSDELEFAKSFIGTVSIFCLCATLFTFLTFLIDVRRFRYPERPIIYYSVCYSIVSLMYFIGFLLGDSTACNKADEKLELGDTVVLGSQNKACTVLFMLLYFFTMAGTVWWVILTITWFLAAGRKWSCEAIEQKAVWFHAVAWGTPGFLTVMLLAMNKVEGDNISGVCFVGLYDLDASRYFVLLPLCLCVFVGLSLLLAGIISLNHVRQVIQHDGRNQEKLKKFMIRIGVFSGLYLVPLVTLLGCYVYEQVNRITWEITWVSDHCRQYHIPCPYQAKAKARPELALFMIKYLMTLIVGISAVFWVGSKKTCTEWAGFFKRNRKRDPISESRRVLQESCEFFLKHNSKVKHKKKHYKPSSHKLKVISKSMGTSTGATANHGTSAVAITSHDYLGQETLTEIQTSPETSMREVKADGASTPRLREQDCGEPASPAASISRLSGEQVDGKGQAGSVSESARSEGRISPKSDITDTGLAQSNNLQVPSSSEPSSLKGSTSLLVHPVSGVRKEQGGGCHSDT
chain 2: B1 chain 1

Variants of: B1
Assay: dcFRAP
Details: with Frizzled 6 (FZD6), GFP channel (FZD6-GFP dimer control mutant), without CL (before crosslinking of V5-FZD6-mCherry), N = 75 ROIs, read off a plot

| Variant | response (% of pre-bleach) |
| --- | --- |
| chain 1 D347E R350K Y351F | 85 |

Same assay, conditions: with Frizzled 6 (FZD6), GFP channel (FZD6-GFP dimer mutant), without CL (before biotin-anti-V5/avidin surface crosslinking of V5-FZD6-mCherry), N = 23 ROIs, read off a plot

| Variant | response (% of pre-bleach) |
| --- | --- |
| chain 1 D347A R350A Y351A | 85 |
